The RNAGym collection of RNA variant scans (doi:10.1073/pnas.2313332121)

B1: TPR t1 (parent)
chain: GACCAAUCUGCCCUCAGAGCUCGAGAACAUCUUCGGAUGCAGAGGAGGCAGGCUUCGGUGGCGCGAUAGCGCCAACGUCCUCAACCUCCAAUGCAUCCCACCACAUGAUGAUGCCUGAAGAGCCUUGGUUUUUUG

Variants of: B1
Assay: polymerase ribozyme fitness, log enrichment relative to wild type (log ratio); higher = more active; in vitro selection for triplet polymerase activity
Summary of the method: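 Fitness measures genotype enrichment against wild-type enrichment on a logarithmic scale, with inverse-variance-weighted averaging of replicates. The logarithm is base 2, and genotypes were kept only with ≥10 input reads and ≥1 read per output in Illumina sequencing. The sequenced libraries came from one triplicate in vitro selection round, including frozen incubation at −7 °C, of PCR-built, transcribed mutant libraries of each subunit of a heterodimeric triplet polymerase ribozyme.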

Row | Variant | polymerase ribozyme fitness (log ratio)
1 | GACCAAUCUGCCCUCAGAGCUCGAGAACAUCUUCGGAUGCAGAGGAGGCAGGCUUCGGUGCCGCGAUAGCGCCAACGUCCUCAACCUACAAUGCAUCCCACCACAUGAUGAUGCCUUAAGAGCCUUGGUUUUUUG [G61C C88A G117U] | -5.25
2 | GACCAAUCUGCCCUCAGAGCUCGAGAACAUCUUCGGAUGCAGAGGAGGCAGGCUUCGGUGGCCCGAUAGCGCCAACGUUCUCAACCUCCAAUGCAUCCCACCACAUGAUGAUGCCUGAAGAGCCUUGGCUUUUUG [G63C C79U U129C] | -0.807
3 | GAACAAUCUGCCCUCAGAGCUCGAGAACAUCUUCGGAUGCAGAGGAGGCAGGCUUCGGUGGCGCGAUAGCGCCAACGUCCUCAACCUCCAAUGCAUCCCACCACAGGAUGAUUCCUGAAGAGCCUUGGUUUUUUG [C3A U106G G113U] | -6.02
4 | GACCAAUCUGCCCUCAGAGCUCGAGAACAUCUUCGGAUGCAGAGGAGGCAGGCUUCGGUGGCGCGAUAGCGCAAACGUCCUCAACCUCCAAUGCAUCCCACCACAUGAGGAUGCCUGAAGAGCCUUGGUUUUUUG [C73A U109G] | -4.56
5 | GACCAAUCUGCCCUCAGAGCUCGAGAACAUCUUCGGAUGCAGAGGAGGCAGGCUUCGGUGACGCGAUAGCGCCAACGUGCUCAACCUCCAAUGCAUCCCACCACAUGAUGAUGCCUGAAGAGCCUUGGUUUUUUG [G61A C79G] | -0.521
6 | GACCAAUCUGCCCUCAGAGCUCGAGAACAUCUUCGGAUGCAGUGGAGGCAGGCUUCGGUGGCGCGAUAGCGCCAACGUCCUCAACCUCCAAUGCAUCCCACCACAUGAUGAUGCCUGAAGAGCCUUGGAUUUUUG [A43U U129A] | -2.81
7 | GACCAAUCUGCCCUCAGAGCUCGAGAACAUCUCCGGAUGCAGAGGAGGCAGGCUUCGGUGACGCGAUAGCGCCAACGUCCUCAACCUCCAAUGCAUCCCACCACAUGAUGAUGCCCGAAGAGCGUUGGUUUUUUG [U33C G61A U116C C124G] | -5.41
8 | GACCAAUCUGCCCUCAGCGCUCGAGAACAUCUUCGGAUGCAGAGGAGGCAGGCUUCGGUGGCGCGAUAGCGCCCACGUCCUCACCCUCCAAUGCAUCCCACCACAUGAUGAUGCUUGAAGAGCCUUGGUUUUUUG [A18C A74C A84C C115U] | -1.56
9 | GACCAAUCUGCCCUCAGAGCUCGAGAACAUCUUCGGUUGCAGAGGACGUAGGCUUCGGUGGCGCGAUAGCGCCAACGUCCUCAACCUCCAAUGCAUCCCACCACAUGAUGAUGCCUGAAGAGCCUUGGUUUUUUG [A37U G47C C49U] | -2.66
10 | GACCAAUCUGCCCUCAGAGCUCGAGAACAUCUUCGGUUGCAGAGGAGGGAGGCUUCGGUGGCGCGAUAGCGCCAACUUCCUCAACCUCCAAUGCAUCCCACCACAUGAUGAUGCCUGAACAGCCUUGGUUUUUUG [A37U C49G G77U G120C] | 0.00604
11 | GACCAAUCUGCCCUCAGAGCUCGAGAGCAUCUUCGGAUGCAGGGGAGGCAGGCUUCGGUGGCCCGAUAGCGCCAACGUCCUCAACCUCCAAUGCAUCCCACCACAUGAUGAUGCCUGAAGAGCCUUGGUUUUUUG [A27G A43G G63C] | -4.38
12 | GACCAAUCUGCCCUCAGAGCUCGAGAACAUCUUCGGAUGCAGAGGAGGCAGGCUUCGGUGGCGCGAUAGCGCCAACGUCCUCAACAACCAAUGCAUCCCACCACAUGAUGAUGCCUGAAGAGCCUUGGUUUUUUG [C86A U87A] | -2.7
13 | GACCAAUCUGCCCUCAGAGCUCGAGAACAUCUUCGGAUGCAGAGGAGGCAGACUUCGGUGGAGCGAUAGCGCCAACGUCCUCAACCACCAAUGCAUCCCACCACAUGAUGAUGCCUGAAGAGCCUUGGUUUUUUG [G52A C62A U87A] | -3.07
14 | GACCAAUCUGCCCUCAGAGCUCGAGAACAUCUUCGGAUGCAGAGGAGGCAGGCUUCGGUGGCGCGAUAGCGCCAACGUCCUCAACCUCAAAUGCAUCCCACCACAUGAUGAUUCCUGAAGAGCCUUGGUUUUUUG [C89A G113U] | -3.35
15 | GACCAAUCUGCCCUCAGAGCUCGAGAACAUCUUCGGAUGCAGAGGAGGCAGGCUUCGGUGGCGCGAUAGCGCCAACGUCCUCAACCUCCAAUGCAUUCCACCACAUGAUGAUGCCUGAAGAGCCUUGAUUUUUUG [C97U G128A] | -2.66
16 | GACCAAUCUGCCCUCAGAGCUCGAGAACAUCUUCGGAUGCAAAGGAGGCAGGUUUCGGUGGCGCGAUAGCGCCAACGUCCUCAACCUACAAUGCAUCCCACCACAUGAUGAUGACUGAAGAGCCUUUGUUUUUUG [G42A C53U C88A C114A G127U] | -5.52
17 | GACCAAUCUGCCCUUAGAGCUCGAGAACAUCUUCGGAUCCAGAGGAGGCAGGCUUCGGUGGCGCGAUAUCGCCAACGUCCUCAACCUCCAAUGUAUCCCACCACAUGAUGAUGCUUGAAGAGACUUGGUUUUUUU [C15U G39C G69U C94U C115U C123A G135U] | -1.89
18 | GACCAAUCUGCCCUCAGAGCUCGAGAACAUCUUCGGAUGCAGAGGAGGCAGGCUUCGGUGGCGCGAUAGCGCCAACGUCAUCAACCUCCAAUGCAUCCCACCACAAGAUGAUGCCUGAAGAGCCUUGGUUUUUUG [C80A U106A] | -3.28
19 | GACCAAUCUGCCCUCAGAGCUCGAGAAGAUCUUCGGAUGCAGAGGAGGCAGGCUUCGGUGGCGCGAUAUCGCCAACGUCCUCAACCUCCAAUGCAUCCCACCACAUGAUGAUGCCUGAAGAGCCUUGGUUUUUUG [C28G G69U] | -0.552
20 | GACCACUCUGCCCUCAGAGCUCGAGAACAUCUUCGGAUGCAGAGGAGGCAGGCUUCGGUGGCGCGAUAGCGCCAACGUCCUCAACCUCCAAUGCAUCACACCACAUGAUGAUGCCUGAAGAGCCUUGGUUUUUUG [A6C C98A] | -4.73
21 | GACCAAUCUGCCCUCAGAGCUCGAGAACAUCUUCGGAUGCAGAGGAGGCAGGCUUCGGUGGCGUGAUAGCGCCAACGCCCUCAACCUCCAAUGCAUCCCACCAUAUGAUGAUGCCUGAAGAGCCUUGGUUUUUUG [C64U U78C C104U] | 0.13
